Test results published in patent US20260217779A1.

What was measured:
Experiment in all cases: cell-based or functional assay
[1] = target: hCXCL10R75A-G1T4k.one//VHn-G1T4h.one.H435R (human) [IgG part: P01857]
[2] = target: hCXCL10R75A.0001-G1T4k.one//VHn-G1T4h.one.H435R (human) [IgG part: P01857]
[3] = target: hCXCL10R75A.0004-G1T4k.one//VHn-G1T4h.one.H435R (human) [IgG part: P01857]
[4] = target: hCXCL10R75A.0005-G1T4k.one//VHn-G1T4h.one.H435R (human) [IgG part: P01857]
[5] = target: hCXCL10R75A.0007-G1T4k.one//VHn-G1T4h.one.H435R (human) [IgG part: P01857]
[6] = target: hCXCL10R75A.0009-G1T4k.one//VHn-G1T4h.one.H435R (human) [IgG part: P01857]
[7] = target: hCXCL10R75A.0010-G1T4k.one//VHn-G1T4h.one.H435R (human) [IgG part: P01857]
[8] = target: hCXCL10R75A.0015-G1T4k.one//VHn-G1T4h.one.H435R (human) [IgG part: P01857]
[9] = target: hCXCL10R75A.0016-G1T4k.one//VHn-G1T4h.one.H435R (human) [IgG part: P01857]
[10] = target: hCXCL10R75A.0017-G1T4k.one//VHn-G1T4h.one.H435R (human) [IgG part: P01857]
[11] = target: hCXCL10R75A.0018-G1T4k.one//VHn-G1T4h.one.H435R (human) [IgG part: P01857]
Sequence of hCXCL10R75A.0018-G1T4k.one//VHn-G1T4h.one.H435R (human) [IgG part: P01857] (P01857 other isoform, or with tags, fused parts or gaps H435R H435R, chain 1 of 2): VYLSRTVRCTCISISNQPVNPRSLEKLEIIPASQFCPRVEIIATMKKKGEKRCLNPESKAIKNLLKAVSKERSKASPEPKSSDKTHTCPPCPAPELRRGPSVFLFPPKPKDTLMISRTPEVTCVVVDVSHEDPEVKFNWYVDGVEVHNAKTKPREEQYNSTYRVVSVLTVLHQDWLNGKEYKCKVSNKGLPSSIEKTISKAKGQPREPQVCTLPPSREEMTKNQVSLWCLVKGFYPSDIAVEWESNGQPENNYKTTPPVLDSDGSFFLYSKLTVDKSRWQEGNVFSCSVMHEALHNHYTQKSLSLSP
Sequence of hCXCL10R75A.0018-G1T4k.one//VHn-G1T4h.one.H435R (human) [IgG part: P01857] (P01857 other isoform, or with tags, fused parts or gaps H435R H435R, chain 2 of 2): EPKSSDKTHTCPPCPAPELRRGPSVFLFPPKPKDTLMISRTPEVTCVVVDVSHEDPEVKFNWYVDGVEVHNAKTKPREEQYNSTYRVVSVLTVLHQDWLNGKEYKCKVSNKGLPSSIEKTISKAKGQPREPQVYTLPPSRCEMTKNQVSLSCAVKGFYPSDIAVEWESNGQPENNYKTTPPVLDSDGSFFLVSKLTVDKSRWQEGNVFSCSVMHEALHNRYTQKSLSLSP

[12] = target: hCXCL10R75A.0019-G1T4k.one//VHn-G1T4h.one.H435R (human) [IgG part: P01857]
[13] = target: hCXCL10R75A.0023-G1T4k.one//VHn-G1T4h.one.H435R (human) [IgG part: P01857]
[14] = target: hCXCL10R75A.0025-G1T4k.one//VHn-G1T4h.one.H435R (human) [IgG part: P01857]
Sequence of hCXCL10R75A.0025-G1T4k.one//VHn-G1T4h.one.H435R (human) [IgG part: P01857] (P01857 other isoform, or with tags, fused parts or gaps H435R H435R, chain 1 of 2): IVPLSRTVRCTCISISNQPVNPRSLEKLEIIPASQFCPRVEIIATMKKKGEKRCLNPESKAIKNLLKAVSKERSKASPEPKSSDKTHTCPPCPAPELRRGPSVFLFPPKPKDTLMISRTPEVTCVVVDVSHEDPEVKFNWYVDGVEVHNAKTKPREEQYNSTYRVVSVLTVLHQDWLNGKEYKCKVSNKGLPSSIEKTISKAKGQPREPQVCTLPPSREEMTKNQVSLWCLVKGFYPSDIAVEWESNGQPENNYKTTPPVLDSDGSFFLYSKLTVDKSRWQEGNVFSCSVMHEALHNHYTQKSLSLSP
Sequence of hCXCL10R75A.0025-G1T4k.one//VHn-G1T4h.one.H435R (human) [IgG part: P01857] (P01857 other isoform, or with tags, fused parts or gaps H435R H435R, chain 2 of 2): as the sequence (P01857 other isoform, or with tags, fused parts or gaps H435R H435R, chain 2 of 2) above

[15] = target: hCXCL10R75A.0027-G1T4k.one//VHn-G1T4h.one.H435R (human) [IgG part: P01857]
[16] = target: hCXCL10R75A.0029-G1T4k.one//VHn-G1T4h.one.H435R (human) [IgG part: P01857]
[17] = target: hCXCL10R75A.0031-G1T4k.one//VHn-G1T4h.one.H435R (human) [IgG part: P01857]
[18] = target: hCXCL10R75A.0033-G1T4k.one//VHn-G1T4h.one.H435R (human) [IgG part: P01857]
Sequence of hCXCL10R75A.0033-G1T4k.one//VHn-G1T4h.one.H435R (human) [IgG part: P01857] (P01857 other isoform, or with tags, fused parts or gaps H435R H435R, chain 1 of 2): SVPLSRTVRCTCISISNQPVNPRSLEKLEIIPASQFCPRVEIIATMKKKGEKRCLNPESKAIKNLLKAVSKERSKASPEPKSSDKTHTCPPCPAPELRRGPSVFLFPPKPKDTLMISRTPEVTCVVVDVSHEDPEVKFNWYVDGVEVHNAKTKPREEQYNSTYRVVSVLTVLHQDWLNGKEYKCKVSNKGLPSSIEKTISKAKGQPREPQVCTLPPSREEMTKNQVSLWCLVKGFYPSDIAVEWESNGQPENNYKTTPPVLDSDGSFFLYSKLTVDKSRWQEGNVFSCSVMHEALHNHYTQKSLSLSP
Sequence of hCXCL10R75A.0033-G1T4k.one//VHn-G1T4h.one.H435R (human) [IgG part: P01857] (P01857 other isoform, or with tags, fused parts or gaps H435R H435R, chain 2 of 2): as the sequence (P01857 other isoform, or with tags, fused parts or gaps H435R H435R, chain 2 of 2) above

[19] = target: hCXCL10R75A.0034-G1T4k.one//VHn-G1T4h.one.H435R (human) [IgG part: P01857]
[20] = target: hCXCL10R75A.0036-G1T4k.one//VHn-G1T4h.one.H435R (human) [IgG part: P01857]
[21] = target: hCXCL10R75A.0038-G1T4k.one//VHn-G1T4h.one.H435R (human) [IgG part: P01857]
[22] = target: hCXCL10R75A.0041-G1T4k.one//VHn-G1T4h.one.H435R (human) [IgG part: P01857]
[23] = target: hCXCL10R75A.0042-G1T4k.one//VHn-G1T4h.one.H435R (human) [IgG part: P01857]
Sequence of hCXCL10R75A.0042-G1T4k.one//VHn-G1T4h.one.H435R (human) [IgG part: P01857] (P01857 other isoform, or with tags, fused parts or gaps H435R H435R, chain 1 of 2): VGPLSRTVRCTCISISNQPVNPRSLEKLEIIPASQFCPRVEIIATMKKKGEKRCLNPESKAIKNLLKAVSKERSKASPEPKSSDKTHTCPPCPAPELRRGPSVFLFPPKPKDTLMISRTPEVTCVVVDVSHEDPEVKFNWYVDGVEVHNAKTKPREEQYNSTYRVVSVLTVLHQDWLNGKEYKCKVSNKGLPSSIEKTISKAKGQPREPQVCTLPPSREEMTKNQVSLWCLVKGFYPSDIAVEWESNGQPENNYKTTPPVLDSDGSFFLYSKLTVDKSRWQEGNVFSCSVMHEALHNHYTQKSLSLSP
Sequence of hCXCL10R75A.0042-G1T4k.one//VHn-G1T4h.one.H435R (human) [IgG part: P01857] (P01857 other isoform, or with tags, fused parts or gaps H435R H435R, chain 2 of 2): as the sequence (P01857 other isoform, or with tags, fused parts or gaps H435R H435R, chain 2 of 2) above

[24] = target: hCXCL10R75A.0044-G1T4k.one//VHn-G1T4h.one.H435R (human) [IgG part: P01857]
Sequence of hCXCL10R75A.0044-G1T4k.one//VHn-G1T4h.one.H435R (human) [IgG part: P01857] (P01857 other isoform, or with tags, fused parts or gaps H435R H435R, chain 1 of 2): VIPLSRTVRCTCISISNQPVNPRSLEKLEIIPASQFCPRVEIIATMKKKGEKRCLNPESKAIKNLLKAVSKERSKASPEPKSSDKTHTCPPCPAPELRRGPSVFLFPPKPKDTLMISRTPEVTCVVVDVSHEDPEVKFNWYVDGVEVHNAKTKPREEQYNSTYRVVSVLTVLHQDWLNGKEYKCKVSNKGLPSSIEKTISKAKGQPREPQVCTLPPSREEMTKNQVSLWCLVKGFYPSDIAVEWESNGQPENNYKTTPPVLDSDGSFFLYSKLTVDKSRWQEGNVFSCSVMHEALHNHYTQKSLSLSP
Sequence of hCXCL10R75A.0044-G1T4k.one//VHn-G1T4h.one.H435R (human) [IgG part: P01857] (P01857 other isoform, or with tags, fused parts or gaps H435R H435R, chain 2 of 2): as the sequence (P01857 other isoform, or with tags, fused parts or gaps H435R H435R, chain 2 of 2) above

[25] = target: hCXCL10R75A.0047-G1T4k.one//VHn-G1T4h.one.H435R (human) [IgG part: P01857]
Sequence of hCXCL10R75A.0047-G1T4k.one//VHn-G1T4h.one.H435R (human) [IgG part: P01857] (P01857 other isoform, or with tags, fused parts or gaps H435R H435R, chain 1 of 2): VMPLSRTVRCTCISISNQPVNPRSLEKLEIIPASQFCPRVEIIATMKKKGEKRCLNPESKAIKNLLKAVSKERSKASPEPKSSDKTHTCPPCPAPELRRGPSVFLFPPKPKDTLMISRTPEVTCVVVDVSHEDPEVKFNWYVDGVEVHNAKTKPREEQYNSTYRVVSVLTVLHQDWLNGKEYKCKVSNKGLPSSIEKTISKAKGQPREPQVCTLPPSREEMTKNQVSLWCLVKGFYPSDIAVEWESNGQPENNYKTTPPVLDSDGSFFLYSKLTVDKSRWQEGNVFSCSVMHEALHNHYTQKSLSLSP
Sequence of hCXCL10R75A.0047-G1T4k.one//VHn-G1T4h.one.H435R (human) [IgG part: P01857] (P01857 other isoform, or with tags, fused parts or gaps H435R H435R, chain 2 of 2): as the sequence (P01857 other isoform, or with tags, fused parts or gaps H435R H435R, chain 2 of 2) above

[26] = target: hCXCL10R75A.0049-G1T4k.one//VHn-G1T4h.one.H435R (human) [IgG part: P01857]
[27] = target: hCXCL10R75A.0053-G1T4k.one//VHn-G1T4h.one.H435R (human) [IgG part: P01857]
[28] = target: hCXCL10R75A.0054-G1T4k.one//VHn-G1T4h.one.H435R (human) [IgG part: P01857]

Sequence of human dipeptidyl peptidase IV (human DPPIV, hDPPIV) (Biolegend, 764102) (P27487 29-766 limits assumed): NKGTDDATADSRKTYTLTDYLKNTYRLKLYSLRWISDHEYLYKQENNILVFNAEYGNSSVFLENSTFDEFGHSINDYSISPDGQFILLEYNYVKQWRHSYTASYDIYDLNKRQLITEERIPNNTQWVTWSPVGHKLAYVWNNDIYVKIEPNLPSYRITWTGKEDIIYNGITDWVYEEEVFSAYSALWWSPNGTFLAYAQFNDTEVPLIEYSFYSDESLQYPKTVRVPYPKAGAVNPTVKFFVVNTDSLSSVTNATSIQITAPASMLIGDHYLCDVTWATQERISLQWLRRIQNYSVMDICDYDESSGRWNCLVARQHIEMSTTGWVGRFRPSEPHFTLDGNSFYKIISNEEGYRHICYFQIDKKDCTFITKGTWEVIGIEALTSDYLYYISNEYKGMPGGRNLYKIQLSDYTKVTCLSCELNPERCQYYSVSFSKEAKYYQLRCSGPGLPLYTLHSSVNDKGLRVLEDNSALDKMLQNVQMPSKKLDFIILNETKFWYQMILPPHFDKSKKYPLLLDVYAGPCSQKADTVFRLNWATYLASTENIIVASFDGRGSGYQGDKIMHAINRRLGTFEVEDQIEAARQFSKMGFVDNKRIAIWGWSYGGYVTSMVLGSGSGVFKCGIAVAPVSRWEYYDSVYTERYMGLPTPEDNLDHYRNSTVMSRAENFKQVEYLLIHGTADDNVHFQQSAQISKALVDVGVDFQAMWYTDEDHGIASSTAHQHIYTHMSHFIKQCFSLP
Sequence of hCXCL10R75A.0005-G1T4k.one//VHn-G1T4h.one.H435R (human) [IgG part: P01857] (P01857 other isoform, or with tags, fused parts or gaps H435R H435R, chain 1 of 2): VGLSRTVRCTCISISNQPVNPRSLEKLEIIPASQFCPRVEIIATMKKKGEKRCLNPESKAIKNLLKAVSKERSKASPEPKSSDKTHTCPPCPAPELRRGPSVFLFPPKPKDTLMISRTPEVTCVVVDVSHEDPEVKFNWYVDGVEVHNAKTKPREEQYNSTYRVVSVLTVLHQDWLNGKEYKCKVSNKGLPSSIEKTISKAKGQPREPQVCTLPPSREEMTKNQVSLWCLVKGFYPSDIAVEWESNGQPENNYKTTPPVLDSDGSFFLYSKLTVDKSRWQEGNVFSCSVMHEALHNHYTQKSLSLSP
Sequence of hCXCL10R75A.0005-G1T4k.one//VHn-G1T4h.one.H435R (human) [IgG part: P01857] (P01857 other isoform, or with tags, fused parts or gaps H435R H435R, chain 2 of 2): as the sequence (P01857 other isoform, or with tags, fused parts or gaps H435R H435R, chain 2 of 2) above

## human dipeptidyl peptidase IV (human DPPIV, hDPPIV) (Biolegend, 764102) (from UniProt P27487 29-766) (enzyme)
[1]
  mass change after hDPPIV treatment (LC/MS): 195 Da
[2]
  mass change after hDPPIV treatment (LC/MS): 171 Da
[3]
  mass change after hDPPIV treatment (LC/MS): 1 Da
[4]
  mass change after hDPPIV treatment (LC/MS): -1 Da
[5]
  mass change after hDPPIV treatment (LC/MS): 1 Da
[6]
  mass change after hDPPIV treatment (LC/MS): 1 Da
[7]
  mass change after hDPPIV treatment (LC/MS): -1 Da
[8]
  mass change after hDPPIV treatment (LC/MS): 0 Da
[9]
  mass change after hDPPIV treatment (LC/MS): 1 Da
[10]
  mass change after hDPPIV treatment (LC/MS): 0 Da
[11]
  mass change after hDPPIV treatment (LC/MS): 0 Da
[12]
  mass change after hDPPIV treatment (LC/MS): 1 Da
[13]
  mass change after hDPPIV treatment (LC/MS): 1 Da
[14]
  mass change after hDPPIV treatment (LC/MS): 0 Da
[15]
  mass change after hDPPIV treatment (LC/MS): 1 Da
[16]
  mass change after hDPPIV treatment (LC/MS): -1 Da
[17]
  mass change after hDPPIV treatment (LC/MS): 0 Da
[18]
  mass change after hDPPIV treatment (LC/MS): 2 Da
[19]
  mass change after hDPPIV treatment (LC/MS): 0 Da
[20]
  mass change after hDPPIV treatment (LC/MS): 0 Da
[21]
  mass change after hDPPIV treatment (LC/MS): 0 Da
[22]
  mass change after hDPPIV treatment (LC/MS): 0 Da
[23]
  mass change after hDPPIV treatment (LC/MS): 1 Da
[24]
  mass change after hDPPIV treatment (LC/MS): 0 Da
[25]
  mass change after hDPPIV treatment (LC/MS): 0 Da
[26]
  mass change after hDPPIV treatment (LC/MS): 1 Da
[27]
  mass change after hDPPIV treatment (LC/MS): -2 Da
[28]
  mass change after hDPPIV treatment (LC/MS): 0 Da
